assay: yeast display, Sf9 membrane polyspecificity reagent, FACS + sequencing; frameworks hold sequencing errors
Procedure, shortened: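 Galactose-induced (36–48 hours) yeast carrying a synthetic nanobody display library were exposed to 10% biotinylated, detergent-solubilized Sf9 membrane reagent at 4 °C for 1 hour. FACS followed streptavidin microbead enrichment, using low and high (top ~1%) gates for expression (anti-HA) and reagent binding (streptavidin). Colony PCR, MiSeq 2 × 250 sequencing and CDR-length filtering followed. Labels for polyreactivity reflect the gate of origin.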

Sequence | polyreactivity (PSR sort gate)
QVHLVESGVGLVQARGSLRLSCASSGSTFGGNAMGWYRQAPGTERELVAAIDSGGGTNYADSVKGRFTIARDNAKNTVYLQMTSLKPEDTAVYYCNADWAVRSTQNSSSGHDYWGQATQVTVSS | low polyreactivity
QVHLVESGVGLVQSGGSIRLTCAASGSTFHVYTKGSYRQAPGKEREFVASISCSGSSTYYADSVKGRFTISRDNAKNTVYLQMNSLKPEDTAVYYCNVDRWWLGWYKFNYWGQGTQVTVSS | high polyreactivity
QVHLVESVGGLVQAGGSHRLSCAASGRTLGFYAMGWYRQAPGKERELVAAINWSGGSTYYADSVKGRFTISRDNAKNTVYLQMNSLKPEDTAVYNCGVGTNYYDYWGQGTQVTVSS | high polyreactivity
QVHLVESVGGLVQAGGSLRISCAASGRIFSKYAMGWYRQAPGKDRELVGAITSSTKYADSVKGRFTISRDNAKNTVYLQMHSLKPEDTAVYSCNAEFVWHTYYGADFKMDYWGQGTQVTVSS | high polyreactivity
QVHLVESVGGLVQAGGSLRLSCAASGRTFPYNAMGWYIQAPGKERELVAVISKGGGRTYYADSVKGRFTISLDNAKNTVYLQMNSLKPEDTAVYYCDARYDGSSDYRLNYWGQGTQVTVSS | high polyreactivity
QVHLVESVGGLVQAGGSLRLSCAASGRTFRRYAMVWYRQAPGKERELVATITSADSTNYADSVKGRFTISRDNAKNTVYLQMNSLKPEDTAVYYCAKRWGRYAMYYWGQGTQVTVSS | high polyreactivity
QVHLVESVVCLVQAGGSLALSCASYGSIFRYYALGWYIQGTGKESELVAGITWGCRRTFYADSEKGRFTISRHNAKNTFYIQMNILKPEDTAVCYCAPRWFWKAYRFYYWGQGTQLTVSS | high polyreactivity
QVHLVETGGGLVHAGGSLRLSCAASGFIFGVNAMGWYRQAPGKERELDAAITRNGGSTYYADSVKGRFTISRDYAKNTVYLQMNSLKPEDTAVYYCAKYVRRAPSSIDVDYWGQGTQVTVSS | high polyreactivity
QVHLVETGGGLVQAGGSLRLSCAASGRTFYVNAMGWYRQAPWKERELVARITSGGSTYYADSVKGRFTISRDNAKNTVYLQMNSLKPEDTAVYYCAKKYIGYQVWIHSTRRYDYWGHGTQVTVSS | low polyreactivity
QVHLVETGGGLVQAGGSLRLSCAASGSIFSSYHMVWYRQAPGKERELVASISSGGSTNYADSVKGRFTISRDNAKNTVYLHMNSLNPEVTAVYYCNVDLYNWRGDSTGYDYWGQGTQVTVSS | low polyreactivity
QVHLVETGGGLVQAGGSPRLSCAASGRTLLDYGLGWYRQAPGKERELVAGITSSGGRSYADSVKGRLTISRDNAKNTVYLEMNSLKPEDSAGYYCAAYLNLSELLRYHYWGKGTQVTVSS | low polyreactivity
QVHLVETGRGLLQSGGSLRISCAASGRTFIYNAMGWYRQAPGKERELVARISSGGGNTYYAYSVKWRFTISRDNANNTVYLLMNSLKPEDTAVYYCAIGWRPSFSYYWGQGTQVTVSS | high polyreactivity
QVHLVQSGGGIVQEGGSLRISCAASGFTLIHYAMGWYRQAPGKERELVAGITTSGGSTYYADSVKGRFTISRDNAKNTVYLQMKSLKPEDTGVYYCADSSNTRGDYWGQGTQVTVSS | high polyreactivity
QVKHVESGGGLVKAGGSLRLSCPAAGRIIDKYAMGWYRQSPGKERELVATITSSGGSTYYADSVKGRFTISRDTAMNNVYLQMNSLKPEDTAVYYCDALDRTGYSRGETRSLYYFWGQGTQVTVSS | low polyreactivity
QVKHVESVGRLVQAGGSLRLSSASSGRIFRSYAMGCYRQAPGKESEYVAAISRSGGRTYYADSVKGRFTISRDNAKNTVYLQMNSLKPEDSAVYYCAVVDYHVHSSDYNYWGQGTQVTVSS | high polyreactivity
QVKLEESGGGLLQAGGSLRLSCAASGRIIGDYAMGSYRQAPGKERELVAANDRGGSTHYADSVKGRYTISRDNAKNTFYFQMNSLKPEDTAVYYCNLDVWANIKSRCIFAGWYDYWGQGTQVTVSS | low polyreactivity
QVKLLDSGGGLVQAGGSLRLTSAASGRIFYTNAMGWYRQEPGKERELVAVISWGGDTTYYADSVKGRFTISRDNAKNTVYLQMTSLKPEDTAVYYCNADWGATYEIYDSWGQGTQVTVST | low polyreactivity
QVKLLESGGGLVQAGGSLLLSCAASGSIFDGYSMVWYRQAPGKEREFVASIRFSTGRTYYADSVKGRFTISRDNAKNTVYLQMNSLKPEDTAVYYCNAPQGFVWRYSSWGPYDYWGQGTQVTVSS | high polyreactivity
QVKLVESAGGLVKAGGSLRLSSAASGITFNLYAMGCYSQSPGKERELVAAISWSGGSTYYADSVKGRFTISREHAKNTVYLQMNSLNQEDTAVYYCAAAWDYSAPYTYIYDYWGLGTQVTVSS | low polyreactivity
QVKLVESAVGLVQAGGSLRLSCAASGRTFCSYAMGWYRQAPGKERELVAAISRGGSRTYYADSVKGRFTISRDNAKNTVYLQMNSLKPEDTAVYYCAADPTASGHFLGQVDYWGQGTQVTVSS | high polyreactivity
QVKLVESAVRLVQAGGSLRLSCAASASTLYRYSMGLYRQAPGKERELVAAISSSGGSSYYADSVKGRFTISRDNAKNTVYLQMNRLKQEDTAVYYCSAAALRTIGAGYRYGNWGQGTQVTVSS | high polyreactivity
QVKLVESGAGLVQAGASLRLSCAASGLIFHQYAMGWYRQAPGKERELVAAITRSGTRTYYADSVKGRFTISRDNEKNTVYLQMNSLKPEDTAVYYCAAADTQGVSMDYWGQGTQVTVSS | high polyreactivity

Sequence | polyreactivity (PSR sort gate)
QVKLVESGGALVQAGGSLRLSCAASGRNFSSYAMGRYRQAPGKERYLVARISSSGGGTSYADSVKGRFTISRDNAKNTVYLQMNSLKPEDTAVYYCAAEDQYYRYFFSYEYWGQGTQVTVSS | high polyreactivity
QVKLVESGGCLVQAGCSLRLSCAASGRTFHGYAMGWYRQAPGTERELVAAITVSGDSTYYADSVKGRFTISRDNAKNTVYLQMNSLKPEDTAVYYCNASFREPSTPVYLVAFDYWGQGTQVTVSS | low polyreactivity
QVKLVESGGGLVQAGGSIRLSCAASGSTFATYAMGCYRQAPGKERELVAAITSGGSTDYADSVKGRFTISRDNAKNTVYLQMNSQKPEDTAVYYCNATWVLLSYYYLFWCYDYWGQGTQVTVSS | low polyreactivity
QVKLVESGGGLVQAGGSISLTCAASGSIFYKYVMGWYRQAPGKERELVAAISRGGGSTYYADSVKGRFTISRDNAKNTVYLQMNSLKPEDTAVYYCYAVGRPRYGHGFDHWGQGTQVTVSS | high polyreactivity
QVKLVESGGGLVQAGGSLRISCAASGRIFKIYAMGWYRQAPGKERELVAAISRGGRTYYADSVKGRFTISRDNAKNTVDLQMNSLKPEDTEVYYCAADLLISPEFYYWGQGTQVTVSS | high polyreactivity
QVKLVESGGGLVQAGGSLRLSCAASGFTFGRYAMGWYRQAPGKERELVAAITRRGGSTYYADSVKGRFTISRDNAKNTVYLQMNSLKPEDTAVYYCNKVKQTRTDHDYWGQGTQVTVSS | high polyreactivity
QVKLVESGGGLVQAGGSLRLSCAASGFTIANYAMGWYRQAPGKERELVAAITTSGSTYYADSVKGRFTISRDNAKNTVYLQMNSLKPEDTAVYYCAVSIWVWFASGFDYWGQGTQVTVSS | high polyreactivity
QVKLVESGGGLVQAGGSLRLSCAASGGTFGSNAMGWYRQAPGKERHLVAAISTTGGTTYYADSVKGRFTISRDNAKNTVYLQMNSLKPEDTAVYYCAKDGYVYGDWYTYAYDYWGQGTQVTVSS | low polyreactivity
QVKLVESGGGLVQAGGSLRLSCAASGIIFSGNAMGWYRQAPGKERELVAAITRGGRTYYADSVKGRFTISRDNAKNTVYLQMNSLKPEDTAVYYCAADDPHRAREYDYWGQGTQVTVSS | high polyreactivity
QVKLVESGGGLVQAGGSLRLSCAASGLTFRSYAMRWYRQAPGKERELVAAITRSGGSTYYADSVKGRFTISRDNAKNTVYLQMNRLKPEDTAVYYCAADYGRTLTGGDYWGQGTKVTVSS | high polyreactivity
QVKLVESGGGLVQAGGSLRLSCAASGNIFSIYAMGWYRQAPGKERELVAAITARGGRTYYADSVKGRFTFSRDNAKNTVYLQMNSLKPEDTAVYYCNAVRSTKGYWVPFGGDYWGQGTQGTVSS | low polyreactivity
QVKLVESGGGLVQAGGSLRLSCAASGRIFWSNAMVWYRQAPGKERELVAAISRRGGRTYYADSVKGRFTISRDNAKNTVYLQMNSLKPEDTAVYYCAADGTADYDYWGQGTQVTVSS | high polyreactivity
QVKLVESGGGLVQAGGSLRLSCAASGSIFGSNAMGWYRQAPGKERELVAAITGRGGRTYYADSVKGRFTISRDNAKNTVYLQMNSLKPEDTAVYYCAAIRREVVAGDYWGQGTQVTVSS | high polyreactivity
QVKLVESGGGLVQAGGSLRLSCAASGTFYYNTMGWYIQAPGTERELVAAITSGGRTYADSVKGRFTISRDNAKNTVYLQMNSLKPEDTAVYYCAASWYFFSPGGTFGYWGQGTQVTVSS | low polyreactivity
QVKLVESGGGLVQAGGSLRLSCAAYGSTFAGYAMGWYRQAPGKERELVAAISVSGGSTDYADSVKGRFTISRDNAKNTVYLQMNSLKPEDTAVYYCAAVYVRNQWWRNYYWGQGTQVTVSS | low polyreactivity
QVKLVESGGGLVQAGGSLRLSCADSGSIFVPNTRGWYRQAPGKERELVAAITAGGSTDYADSVKGRFTISRDNAKNTVYLQMNSLKPEDTAVYYCNADVYSWVSGKEGDYWGQGTQVTVTS | low polyreactivity
QVKLVESGGGLVQAGGSLRLSCASSGFTFFHYAKGWYRQAPGKERELVAAISWSGGSTYYADTVKGRFTISRDNAKNTVYLQMNSLKPEDTAVYYCAADGGSTAFDYWGQGTQVTVSS | low polyreactivity
QVKLVESGGGLVQAGGSLRLSCPASGITFVYYAMGGYRQAPGKERELVAAISSAGSSTYYADSVKGRFTISRDNAKNTVYLQMNSLKPEDTAVYYCAATYYVPRLQWMDYWGQGTQVTVSS | low polyreactivity
QVKLVESGGGLVQAGGSLRLSSADSGFIFRRYAMGWYRQAPGKERELVAAINYSGGSTYYADSVKGRFTISRDHAKNTVYLQMNSPKPEYTAVYYCNAYGLRYYEYDYWGQGTQVTVSS | low polyreactivity
QVKLVESGGGLVQAGGSLRLTCAASGIIFSWYAMGWYRQAPGKERELVAAISWSGGRTYYADSVKGRFTISRDNAKNSFYLQMNSLKPEDTAVYYCAAERNLFSHWEARYFWGQGTQVTVSS | high polyreactivity
QVKLVESGGGLVQAGGSLRLTCAAYGFTFAGYTLGCYRQAPGKERELVAAITSSGGSTYYADYVKGRFTISRDNAKNTVYLQMNSLKPEDTAVYYCAARSHSTYYYWGQGTQVTVSS | high polyreactivity
